Test results reported in US20180016306A1.
Positions count from the first letter of the chain named. Numbers in names are those of the source.

B1: LB5t-T16D.1d (designed binder)
chain: GPLGSEQVTIKENIYFEDGTVQDATFKGTFAEATAEAYRYADLLSKEHGKYTADLEDGGYTINIRFAG
B2: LB5t-A17H.1d (designed binder)
chain: B1 chain with D23T, A24H
B3: LB5t-T16A.1d (designed binder)
chain: B1 chain with D23A
B4: LB5t-T18Q.1d (designed binder)
chain: B1 chain with D23T, T25Q
B5: LB5t-T18H.1d (designed binder)
chain: B1 chain with D23T, T25H
B6: LB5t-T16H.1d (designed binder)
chain: B1 chain with D23H
B7: LB5t-Q15H.1d (designed binder)
chain: B1 chain with Q22H, D23T
B8: LB5t-T18D.1d (designed binder)
chain: B1 chain with D23T, T25D
B9: LB5t-T16H.4d (designed binder)
chain: KEETPETPETDSEEQVTIKENIYFEDGTVQHATFKGTFAEATAEAYRYADLLSKEHGKYTADLEDGGYTINIRFAGKEKTPEEPKEQVTIKENIYFEDGTVQHATFKGTFAEATAEAYRYADLLSKEHGKYTADLEDGGYTINIRFAGKEKTPEEPKEQVTIKENIYFEDGTVQHATFKGTFAEATAEAYRYADLLSKEHGKYTADLEDGGYTINIRFAGKEKTPEEPKEQVTIKENIYFEDGTVQHATFKGTFAEATAEAYRYADLLSKEHGKYTADLEDGGYTINIRFAGKKVDEKPEEC
B10: LB5t-T16L.1d (designed binder)
chain: B1 chain with D23L
B11: LB1t-Wild.1d (protein)
chain: VTIKANLIFANGSTQTAEFKGTFEKATSEAYAYADTLKKDNGEYTVDVADKGYTLNIKFA
B12: LB1t-E18D.1d (designed binder)
chain: B11 chain with E18D

The binders below were run against aRSV-Fab (Fab fragment of anti-RSV monoclonal IgG Palivizumab, Synagis) (assay: affinity chromatography, peptide on aRSV-Fab-immobilised column, linear pH gradient 5.5 to 2.5, pH at elution peak top).
B1 gave a Dissociation pH of 3.6 pH. B2 showed a Dissociation pH of 3.9 pH. With B3 the Dissociation pH was 3.6 pH. B4 was tested, and the Dissociation pH was 3.65 pH. B5 showed a Dissociation pH of 3.9 pH. Binder B6 has a Dissociation pH of 3.9 pH. B7 was tested, and the Dissociation pH was 3.9 pH. For B8, the Dissociation pH was 3.85 pH.

What follows are binders tested against aRSV-Fab (Fab fragment of anti-RSV monoclonal IgG Palivizumab, Synagis) (assay: affinity chromatography, aRSV-Fab on LB5t-T16H.4d-immobilised cellulose carrier, linear pH gradient 5.0 to 2.4, pH at elution peak top).
With B9 the Elution pH was 3.66 pH.

These binders were tested against aRSV-Fab (Fab fragment of anti-RSV monoclonal IgG Palivizumab, Synagis) (assay: SPR (Biacore 3000), aRSV-Fab on CM5 chip, peptide flowed, 25 C, pH 7.4, 1:1 fit).
Binder B1 has a Ka of 1.44e+07 M⁻¹, a koff of 0.0265 s⁻¹ and a kon of 381000 M⁻¹ s⁻¹. Binder B2 has a Ka of 1.08e+06 M⁻¹, a koff of 0.0738 s⁻¹ and a kon of 80000 M⁻¹ s⁻¹. For B3, the Ka was 1.87e+07 M⁻¹, the koff was 0.0225 s⁻¹ and the kon was 421000 M⁻¹ s⁻¹. For B4, the Ka was 1.26e+07 M⁻¹, the koff was 0.0296 s⁻¹ and the kon was 373000 M⁻¹ s⁻¹. B5 gave a Ka of 1.17e+07 M⁻¹, a koff of 0.036 s⁻¹ and a kon of 422000 M⁻¹ s⁻¹. B6 showed a Ka of 2.69e+07 M⁻¹, a koff of 0.0159 s⁻¹ and a kon of 428000 M⁻¹ s⁻¹. With B7 the Ka was 6.7e+06 M⁻¹, the koff was 0.0485 s⁻¹ and the kon was 325000 M⁻¹ s⁻¹. For B8, the Ka was 6.79e+06 M⁻¹, the koff was 0.0467 s⁻¹ and the kon was 317000 M⁻¹ s⁻¹.

Each binder was assayed against aRSV-Fab (Fab fragment of anti-RSV monoclonal IgG Palivizumab, Synagis) (assay: affinity chromatography, peptide on aRSV-Fab-immobilised column, linear pH gradient, pH at elution peak top).
Binder B10 has a Dissociation pH of 3.65 pH. B11 was tested, and the Dissociation pH was 2.7 pH. B12 showed a Dissociation pH of 2.95 pH.
